Literature values as cited in US20180296542A1, “IMINOSUGARS FOR IMPROVING BONE MINERAL DENSITY IN BONE DISEASE” (Saint Louis University, priority 2015, published 2018).

Test system: Akp2^−/− mice
Details: cited from earlier work

B1: untagged, native human TNSALP: untagged, native human tissue nonspecific alkaline phosphatase used for ERT in Akp2−/− mice (protein, UniProt P05186 18-501, looked up)
Alkaline phosphatase, …: LVPEKEKDPKYWRDQAQETLKYALELQKLNTNVAKNVIMFLGDGMGVSTVTAARILKGQLHHNPGEETRLEMDKFPFVALSKTYNTNAQVPDSAGTATAYLCGVKANEGTVGVSAATERSRCNTTQGNEVTSILRWAKDAGKSVGIVTTTRVNHATPSAAYAHSADRDWYSDNEMPPEALSQGCKDIAYQLMHNIRDIDVIMGGGRKYMYPKNKTDVEYESDEKARGTRLDGLDLVDTWKSFKPRYKHSHFIWNRTELLTLDPHNVDYLLGLFEPGDMQYELNRNNVTDPSLSEMVVVAIQILRKNPKGFFLLVEGGRIDHGHHEGKAKQALHEAVEMDRAIGQAGSLTSSEDTLTVVTADHSHVFTFGGYTPRGNSIFGLAPMLSDTDKKPFTAILYGNGPGYKVVGGERENVSMVDYAHNNYQAQSAVPLRHETHGGEDVAVFSKGPMAHLLHGVHEQNYVPHVMAYAACIGANLGHCAPAS
- Bone findings after 6 months (after 6 months): hypomineralization and abnormal proliferative chondrocytes presented
- Growth and fertility compared to untreated knock-out animals: better growth and normal fertility
- Length of life compared to untreated knock-out animals: longer lives
